The values below come from patent EP4339209A1 (MediMabbio Inc., dated 2024).

Numbering of substitutions follows the chain as printed.

To fix the notation:
T1: human GITR expressed on human primary immune cells (T cells, NK cells, NKT cells of PBMC) (human, UniProt Q9Y5U5 26-241)
T1 construct: Native GITR of donor PBMC; also called hGITR in human primary immune cells; GITR on the surface of immune cells
T1 sequence: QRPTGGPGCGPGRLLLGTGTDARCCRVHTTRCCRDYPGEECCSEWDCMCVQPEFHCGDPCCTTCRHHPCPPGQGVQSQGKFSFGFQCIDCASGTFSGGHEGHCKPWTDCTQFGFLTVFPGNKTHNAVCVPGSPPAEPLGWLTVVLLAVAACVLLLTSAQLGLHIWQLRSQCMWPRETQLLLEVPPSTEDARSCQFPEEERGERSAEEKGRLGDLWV

T2: hGITR (including His tag; Cat. GIR-H5228, Acrobiosystems) (human, UniProt Q9Y5U5 26-162)
T2 construct: Bought protein; not shown: His tag
T2 sequence: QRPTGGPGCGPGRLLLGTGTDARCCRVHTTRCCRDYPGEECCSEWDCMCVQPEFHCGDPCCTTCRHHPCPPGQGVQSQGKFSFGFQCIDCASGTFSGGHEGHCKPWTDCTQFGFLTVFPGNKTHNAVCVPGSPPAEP

B1: anti-GITR 51B VH0/VL0 chimeric antibody (human IgG1, kappa) (antibody, V domains shown)
VH: QVQLQQSGAELMKPGASVKLSCKTTGYRFTGYWIEWVKQRPGHGLEWIGEILPGSGATYYSENFKGKATFTADTSSNTAYMQVSSLTTGDSAIYYCARKGGYYAMDYWGQGTSVTVSS
VL: QIVLTQSPAIMSASLGERVTMTCTASSSVSSSYFHWYQQKPGSSPKLWIYSTSNLASGVPARFSGSGSGTSYSLTVSSLEAEDAATYYCHLYHRSPRTFGGGTTLDIKR
notes: Chimeric antibody; also called VH0/Vk0; 51B VH0/Vk0
B2: anti-GITR 51B VH3/VL1 humanized antibody (human IgG1, kappa) (antibody, V domains shown)
VH: QVQLVQSGAEVKKPGASVKVSCKTTGYRFTGYWIEWVRQPPGKGLEWIGEILPGSGATYYSENFKGKVTITADTSTDTAYMELSSLRSEDTAIYYCARKGGYYAMDYWGQGTLVTVSS
VL: B1 VL with T22S, S44A, A61D, S71D, S73T, E80Q, A84V, L105V
B3: anti-GITR 51B VH4/VL4 humanized antibody (human IgG1, kappa) (antibody, V domains shown)
VH: B2 VH with E35N
VL: EIVLTQSPATLSLSPGERATLSCTASSSVSSSYFHWYQQKPGKAPKLWIYSTSNLQSGVPDRFSGSGSGTDYTLTISSLQAEDVATYYCHLYHRSPRTFGGGTKVEIKR
B4: anti-GITR 51B VH3/VL5 humanized antibody (human IgG1, kappa) (antibody, V domains shown)
VH: B2 VH
VL: B3 VL with Q56E
B5: anti-GITR 51B VH3/VL4 humanized antibody (human IgG1, kappa) (antibody, V domains shown)
VH: B2 VH
VL: B3 VL
notes: also called VH3/Vk4; 51B VH3/Vk4
B6: anti-GITR 51B VH2/VL1 humanized antibody (human IgG1, kappa) (antibody, V domains shown)
VH: B2 VH with V20L, V68A, D77N, L83V
VL: B1 VL with T22S, S44A, A61D, S71D, S73T, E80Q, A84V, L105V
B7: anti-GITR 51B VH0/VL1 antibody (human IgG1, kappa) (antibody, V domains shown)
VH: B1 VH
VL: B1 VL with T22S, S44A, A61D, S71D, S73T, E80Q, A84V, L105V
B8: anti-GITR 51B VH4/VL1 humanized antibody (human IgG1, kappa) (antibody, V domains shown)
VH: B2 VH with E35N
VL: B1 VL with T22S, S44A, A61D, S71D, S73T, E80Q, A84V, L105V
B9: anti-GITR 51B VH1/VL4 humanized antibody (human IgG1, kappa) (antibody, V domains shown)
VH: B2 VH with V11L, V20L, V68A, D77N, L83V, E89G, T91S, L113S
VL: B3 VL
B10: anti-GITR 51B VH1/VL5 humanized antibody (human IgG1, kappa) (antibody, V domains shown)
VH: B2 VH with V11L, V20L, V68A, D77N, L83V, E89G, T91S, L113S
VL: B3 VL with Q56E
B11: anti-GITR 51B VH2/VL4 humanized antibody (human IgG1, kappa) (antibody, V domains shown)
VH: B2 VH with V20L, V68A, D77N, L83V
VL: B3 VL
B12: anti-GITR 51B VH2/VL5 humanized antibody (human IgG1, kappa) (antibody, V domains shown)
VH: B2 VH with V20L, V68A, D77N, L83V
VL: B3 VL with Q56E
B13: 51B antibody (as used in the epitope mapping, Example 1.7) (antibody, V domains shown)
VH: B1 VH
VL: QIVLTQSPAIMSASLGERVTMTCTASSSVSSSYFHWYQQKPGSSPKLWIYSTSNLASGVPARFSGSGSGTSYSLTVSSLEAEDAATYYCHLYHRSPRTFGGGTTLDIK
notes: also called anti-GITR monoclonal antibody (51B clone)

One assay deals with recombinant human GITR (Cat No. 13643-H08H, Lot No. LC12JA2509, Sino Biological) (human) (UniProt Q9Y5U5). Description: SPR Biacore 8K, multi-cycle kinetics, purified IgG captured on Protein A, GITR as analyte.
As to B1, the Kd was determined as 570 pM, the Relative KD (fold vs VH0/VL0) was found to be 1, the koff turned out to be 0.000314 s⁻¹ and the kon came out at 552000 M⁻¹ s⁻¹.

For the molecule B2, the Kd stood at 606 pM, the Relative KD (fold vs VH0/VL0) stood at 1.06, the koff came to 0.000482 s⁻¹ and the kon is 796000 M⁻¹ s⁻¹.

Turning to B3, the Kd was determined as 829 pM, the Relative KD (fold vs VH0/VL0) is 1.45, the koff turned out to be 0.000488 s⁻¹ and the kon worked out at 590000 M⁻¹ s⁻¹.

Take B4: the dissociation constant (Kd) stood at 778 pM, the Relative KD (fold vs VH0/VL0) was determined as 1.37, the koff is 0.000456 s⁻¹ and the kon turned out to be 586000 M⁻¹ s⁻¹.

In the case of B5, the Kd is 675 pM, the Relative KD (fold vs VH0/VL0) was found to be 1.19, the koff was found to be 0.00043 s⁻¹ and the kon worked out at 636000 M⁻¹ s⁻¹.

For the next assay the target is unchanged. Description: SPR Biacore 8K, single-cycle kinetics, IgG in supernatant captured on Protein A, GITR as analyte.
For the molecule B1, the Kd was 566 pM, the Relative KD (fold vs VH0/VL0) was 1, the koff worked out at 0.000334 s⁻¹ and the kon came out at 590000 M⁻¹ s⁻¹.

As to B6, the Kd is 1100 pM, the Relative KD (fold vs VH0/VL0) amounted to 1.9, the koff worked out at 0.000734 s⁻¹ and the kon turned out to be 665000 M⁻¹ s⁻¹.

Turning to B7, the Kd stood at 527 pM, the Relative KD (fold vs VH0/VL0) came out at 0.9, the koff worked out at 0.000338 s⁻¹ and the kon came out at 642000 M⁻¹ s⁻¹.

For the molecule B8, the Kd turned out to be 1050 pM, the Relative KD (fold vs VH0/VL0) stood at 1.9, the off-rate constant (koff) was 0.00066 s⁻¹ and the kon stood at 627000 M⁻¹ s⁻¹.

As for B9, the Kd was 1310 pM, the Relative KD (fold vs VH0/VL0) amounted to 2.3, the koff was 0.000616 s⁻¹ and the kon is 469000 M⁻¹ s⁻¹.

For the molecule B10, the Kd was found to be 1410 pM, the Relative KD (fold vs VH0/VL0) came to 2.5, the koff came to 0.000628 s⁻¹ and the kon worked out at 445000 M⁻¹ s⁻¹.

As to B2, the Kd was 693 pM, the Relative KD (fold vs VH0/VL0) worked out at 1.2, the koff was found to be 0.000543 s⁻¹ and the kon was found to be 784000 M⁻¹ s⁻¹.

On to B3, for which the Kd came to 987 pM, the Relative KD (fold vs VH0/VL0) turned out to be 1.7, the koff was 0.00053 s⁻¹ and the kon was 537000 M⁻¹ s⁻¹.

Consider B11, for which the Kd turned out to be 1150 pM, the Relative KD (fold vs VH0/VL0) is 2, the koff came out at 0.000577 s⁻¹ and the kon was found to be 502000 M⁻¹ s⁻¹.

Regarding B4, the Kd worked out at 916 pM, the Relative KD (fold vs VH0/VL0) came to 1.6, the koff came to 0.000507 s⁻¹ and the kon was 554000 M⁻¹ s⁻¹.

For the molecule B12, the Kd is 1330 pM, the Relative KD (fold vs VH0/VL0) is 2.3, the koff is 0.000635 s⁻¹ and the on-rate (kon) was 477000 M⁻¹ s⁻¹.

In the case of B5, the Kd was found to be 758 pM, the Relative KD (fold vs VH0/VL0) is 1.3, the koff amounted to 0.000467 s⁻¹ and the kon came out at 616000 M⁻¹ s⁻¹.

In the next assay the target is T1, human GITR expressed on human primary …. Description: flow cytometry, AF488-labelled antibody on activated human PBMC.
On to B1, for which the binding result is “binds”.

As to B5, the binding result is “binds”.

For the next assay, the target named is T2, hGITR (including His tag; Cat. …). The assay can be described thus: DSS cross-linking of the GITR/51B complex, nLC-orbitrap MS/MS.
For B13, the binding result is given as “binds”.
